In patent publication US6451312:

Assays:
[1] = target: human endoglin (human) (UniProt P17813); assay: cell-based or functional assay
[2] = target: human endoglin (human) (UniProt P17813); assay: FACS on HUVEC, half-maximal fluorescence
[3] = target: human endoglin (human) (UniProt P17813); assay: FACS, corrected fluorescence intensity grade, U937
[4] = target: human endoglin (human) (UniProt P17813); assay: FACS, corrected fluorescence intensity grade, HUVEC
[5] = target: human endoglin (human) (UniProt P17813); assay: indirect immunofluorescence FACS on HUVEC, 10 µg/ml
[6] = target: human endoglin (human) (UniProt P17813); assay: FACS, corrected fluorescence intensity grade, ECV-304
[7] = target: human endoglin (human) (UniProt P17813); assay: FACS, corrected fluorescence intensity grade, A375M and T8
[8] = target: human endoglin (human) (UniProt P17813); assay: FACS, corrected fluorescence intensity grade, HT-1080 and SAOS-2
[9] = target: human endoglin (human) (UniProt P17813); assay: FACS, corrected fluorescence intensity grade, MDA-MB-231 and SKBR3
[10] = target: human endoglin (human) (UniProt P17813); assay: FACS, corrected fluorescence intensity grade, L-endoglin transfectant
[11] = target: human endoglin (human) (UniProt P17813); assay: competition FACS on HUVEC; unlabelled TEC-4 against biotinylated TEC-11 (competitor), ratio 1:1
[12] = target: human endoglin (human) (UniProt P17813); assay: competition FACS on HUVEC; unlabelled TEC-4 against biotinylated TEC-11 (competitor), ratio 1:100
[13] = target: human endoglin (human) (UniProt P17813); assay: FACS, 20 µg/ml TEC-11, sorted Endoglin^hi fraction of postconfluent HUVEC; SD in parentheses
[14] = target: human endoglin (human) (UniProt P17813); assay: FACS, 20 µg/ml TEC-11, sorted Endoglin^lo fraction of postconfluent HUVEC; SD in parentheses
[15] = target: human endoglin (human) (UniProt P17813); assay: competition FACS on HUVEC; unlabelled TEC-11 against biotinylated TEC-4 (competitor), ratio 1:1

complement-mediated lysis of HUVEC (guinea pig complement, trypan blue) [1] [%] | EC50 [2] [µg/mL] | corrected fluorescence intensity (CFI) [3] [cfi] | corrected fluorescence intensity (CFI) [4] [cfi] | specific mean fluorescence intensity (MFI) [5] | corrected fluorescence intensity (CFI) [6] [cfi] | corrected fluorescence intensity (CFI) [7] [cfi] | corrected fluorescence intensity (CFI) [8] [cfi] | corrected fluorescence intensity (CFI) [9] [cfi] | corrected fluorescence intensity (CFI) [10] [cfi] | percent blocking of biotinylated TEC-11 [11] [%] | percent blocking of biotinylated TEC-11 [12] [%] | complement fixation relative to TEC-4 [1] [fold] | MFI [13] | MFI [14] | percent blocking of biotinylated TEC-4 [15] [%] | Substance
48 | 4 | 5 to 25 | > 100 | 200 | 25 to 50 | 5 to 25 | 5 to 25 | 5 to 25 | 50 to 100 | 1 | 20 | – | – | – | – | TEC-4 (tumor endothelial cell antibody 4)
> 50 | 0.4 | 5 to 25 | > 100 | 200 | 25 to 50 | 5 to 25 | 5 to 25 | 5 to 25 | 50 to 100 | – | – | 100 | 270 | 61.6 | 51 | TEC-11 (tumor endothelial cell antibody 11)
